Target: recombinant human α-synuclein protein seeds (human) (UniProt P37840)

Substance R18D (18-mer of D-arginine) (peptide) has a percent inhibition of aggregation of α-syn monomer seeded by m2, cell-free ThT fluorescence at 24 h; R18D 0.05-0.25 μM pre-incubated with the seeds of 62.1% and a percent inhibition of intracellular α-syn aggregation in rat cortical neurons exposed to seeds (0.14 μM), HTRF aggregate assay at 48 h; R18D 0.0625-0.5 μM added 2 h after the seeds of 37.8%.

From publication PMC11763338
